Measurements published in the supplement of paper PMC9170038.

Tested on: MS2 coat protein
Experiment: apparent KD of MS2 coat protein; designed switch direction (-1 OFF switch, 1 ON switch): 1; higher = weaker reporter binding
In short: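 SNAP-549-labelled MS2 coat protein was titrated, doubling from 0.7 or 1.5 nM to 3 µM, over designed RNA switches transcribed on Illumina chips by stalled E. coli RNA polymerase. Runs were done without input, with 200 uM small-molecule ligand, or with an oligonucleotide input. Apparent KD is the per-design median over clusters of curve-fitted normalised fluorescence.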

[1] = Eterna round: R95, input ligand: FMN 200 uM
[2] = Eterna round: R95, input ligand: microRNA oligo, concentration not stated
[3] = Eterna round: R95, input ligand: none
[4] = input ligand: microRNA oligo, concentration not stated

Sequence | apparent KD of MS2 coat protein [1] | apparent KD of MS2 coat protein [2] | apparent KD of MS2 coat protein [3] | apparent KD of MS2 coat protein (input ligand: FMN 200 uM) | apparent KD of MS2 coat protein [4] | apparent KD of MS2 coat protein (input ligand: none)
UGUCCAGCCUGAGCUGGACAAAAGCAUGUACAUGAGGAUCACCCAUGUUCAUGUACAAGCUUUUUGCUCGUCUUAUA [salish99_208a_r3_044] (puzzle: Sensor for hsa-mir-208a) | 404 nM | 13.8 nM | 415 nM | – | – | –
UGUUGAAACUGAGGAUAUGGCGUGUGACGAAUGCCAGAAGGUAGUAGGAGCAACAUGAGGAUCACCCAUGUCCGGCGCAGACCC [Eternabot solution 16] (Eterna round: R96, puzzle: Same State NG 1) | – | – | – | 85.6 nM | 61.3 nM | 71.3 nM
UGUUGGAAGUGAGGAUAUGGGAAAGGAAGUGUACCAGAAGGCACAUCUAGCCGGAACAUGAGGAUCACCCAUGUACCACACUAC [PowerStrip SSNG 1.15] (Eterna round: R96, puzzle: Same State NG 1) | – | – | – | 128 nM | 24.6 nM | 30.7 nM
UGUUGUAUUACAGGAUAUCUAGUAGUUUUAUUUAGAGAAGGGUAUUCACAUGAGGAUCACCCAUGUAUAUACGAGGAAGUUGUG [JMF's solution 36] (Eterna round: R96, puzzle: Same State NG 1) | – | – | – | – | 29.7 nM | –
UGUUGUAUUACAGGAUAUCUAGUAUUUUAAUUUAGAGAAGGGUAUUCACAUGAGGAUCACCCAUGUAUAUACGAGGAAGUUGUG [JMF's solution 43] (Eterna round: R96, puzzle: Same State NG 1) | – | – | – | – | 38.6 nM | –
UUAAAACAUGAGGAUCACCCAUGUCAACAAAGUCGAGGAUAUGGGCAAAUAAAAUAAGAACCAGAAGGCGAAUAAU [salish99_SS1_r3_006] (puzzle: Same State 1) | 38.2 nM | 434 nM | 409 nM | – | – | –
UUAAUGAAGUAAGGAUAUACAUGAGGAUCACUCGUAGAAGGUACUAUACAUGAGGAUCACCCAUGUGCCGGUCAGAAGACUGGA [Mat - Same State NG 1 - JL mod - D5] (Eterna round: R96, puzzle: Same State NG 1) | – | – | – | 755 nM | 534 nM | 723 nM
UUAAUGAUGAUAGGAUAUACAUGAGGAAUCCUCGUAGAAGGAUCAUGACAUGAGGAUCACCCAUGUAACGCUCCGUAGAGCGUA [JL SSNG1 1.16] (Eterna round: R96, puzzle: Same State NG 1) | – | – | – | 220 nM | 94 nM | 250 nM
UUAAUGAUGAUAGGAUAUACAUGAGGAAUUCUCGUAGAAGGAUCAUGACAUGAGGAUCACCCAUGUAACGCUCCGUAGAGCGUA [JL SSNG1 1.15] (Eterna round: R96, puzzle: Same State NG 1) | – | – | – | 572 nM | 385 nM | 1060 nM
UUAAUGAUGUAAGGAUAUACAUGAGGAUUUCUCGUAGAAGGUACAGGACAUGAGGAUCACCCAUGUGUCGCUCAGAAGAGCGUA [Mat - Same State NG 1 - JL mod - D17] (Eterna round: R96, puzzle: Same State NG 1) | – | – | – | 509 nM | 505 nM | 636 nM
UUAAUUAAUUAAUUAUACAUGAGGAUCACCCAUGUAAGUGAUCAGGAUAUCAGCUCGUUUAGAGCUGAGAAGGGAUCCAUGUAA [SSNG3/14-A3] (Eterna round: R96, puzzle: Same State NG 3) | – | – | – | 85.7 nM | 135 nM | 150 nM
UUAGCACAUGAGGAUCACCCAUGUACUAUACUCAUAGGAUAUACAAAGUCUUAAGACGUGGUAGAAGGGUGAGGAA [Zaateddi] (puzzle: Same State 1) | 101 nM | 106 nM | 128 nM | – | – | –
UUAUAACAUGAGGAUCACCCAUGUCAACAAAGUCGAGGAUAUGGGCAAUUAUUAUAAGAACCAGAAGGCGAAUAUU [Mat - Same State 1 - Mod of UCT - D32] (puzzle: Same State 1) | 35.5 nM | 342 nM | 230 nM | – | – | –
UUAUACUAGAGAGGAUAUGCAGAGGAUCACCCUGCAGAAGGCUCAUUAGAGAGGAUAUGCAGAGGAUCACCCUGCAGAAGGCUC [pwkr ssNG DX.21] (Eterna round: R96, puzzle: Same State NG 1) | – | – | – | 10.7 nM | 22.2 nM | 20.1 nM
UUCACCUUUUUUUACAUGAGGAUCACCCAUGUUUACCCUACGUAGGAUAUCGAUGAAUGAUUGUACGAGAAGGACGUAGUAAGU [JR_SSND3_Sub057] (Eterna round: R96, puzzle: Same State NG 3) | – | – | – | 19.1 nM | 30.5 nM | 36.1 nM
UUCCCAGCGGGAGGAUAUGGUGCCUUGUUGGUGCUAGAAGGUCCAACAUGAGGAUCACCCAUGUGGGAGUGGUCUAAUGACCUC [SS NG10LRO08] (Eterna round: R96, puzzle: Same State NG 1) | – | – | – | 301 nM | 181 nM | 347 nM

Sequence | apparent KD of MS2 coat protein [1] | apparent KD of MS2 coat protein [2] | apparent KD of MS2 coat protein [3] | apparent KD of MS2 coat protein (input ligand: FMN 200 uM) | apparent KD of MS2 coat protein [4] | apparent KD of MS2 coat protein (input ligand: none)
UUCUCACUGGUAGGAUAUGUAGGAUAUGUACAUGAGGAUCACCCAUGUCAGUUAAUGACAGAAGGAUAGAAGGACCACAUCUCU [pwkr ssNG2 2FMN 1F5s.1] (Eterna round: R96, puzzle: Same State NG 2) | – | – | – | 198 nM | 139 nM | 146 nM
UUGAAGAACAUAGGAUAUUGAAUACAUAUGUUUAACAUGAGGAUCACCCAUGUGGGUUGCGGUAUCGAGAAGGAUGAAUAAAAG [Mat - Same State NG 2 - JL mod - D15] (Eterna round: R96, puzzle: Same State NG 2) | – | – | – | 328 nM | 259 nM | 256 nM
UUGAAGAAUUAAGGAUAUUGAAUACAUAUGUUUAACAUGAGGAUCACCCAUGUGGGUUGCGGUGUCGAGAAGGUAAAAUACUAG [Mat - same State NG 2 - JL mod - D97] (Eterna round: R96, puzzle: Same State NG 2) | – | – | – | 236 nM | 278 nM | 270 nM
UUGCGGGCUUGAGGAUAUUGAGUACAUAUGUUUAACAUGAGGAUCACCCAUGUGGGUUGCGGUAUCGAGAAGGUAACUUACUAC [salish99_SSNG2_r04_807] (Eterna round: R96, puzzle: Same State NG 2) | – | – | – | 110 nM | 70.4 nM | 97.2 nM
UUGCGGGCUUGAGGAUAUUGAGUACAUAUGUUUAACAUGAGGAUCACCCAUGUGGGUUGCGGUAUCGAGAAGGUAGCUUCCUGC [salish99_SSNG2_r04_812] (Eterna round: R96, puzzle: Same State NG 2) | – | – | – | 76.3 nM | 83.6 nM | 79.1 nM
UUGCGGGCUUGAGGAUAUUGAGUACAUAUGUUUAACAUGAGGAUCACCCAUGUGGGUUGCGGUGUCGAGAAGGUGGCUUCCUGC [salish99_SSNG2_r04_814] (Eterna round: R96, puzzle: Same State NG 2) | – | – | – | 99.2 nM | 76.7 nM | 91.5 nM
UUGGUUGUCGUAGGAUAUGUAGGAUAUGCCUACAUGAGGAUCACCCAUGUUCGCAUGGCAGAAGGACAGAAGGACGAUGACCAU [pwkr ssNG2 2FMN + 1F5.19] (Eterna round: R96, puzzle: Same State NG 2) | – | – | – | 13 nM | 20.5 nM | 50.2 nM
UUGUGUUUGCGAGGAUAUCGUUUGUUGAAGUUACGAGAAGGCGCUCUCUUUACAUGAGGAUCACCCAUGUCUUUGAUGCAUGAU [JR_SSNG1_Sub072] (Eterna round: R96, puzzle: Same State NG 1) | – | – | – | 81.1 nM | 53.5 nM | 75.1 nM
UUGUUACAUGAGGAUCACCCAUGUUGUUGUAGAUAAGGAUAUAUAGGAACGAGAGAAAUAAUAGAAGGUAUUAGAC [JR_SS1_Sub059] (puzzle: Same State 1) | – | 28.6 nM | – | – | – | –
UUGUUUGGUAAAAUACAUGAGGAUCACCCAUGUUAUGGUGCAGAGGAUAUGCAUGUUUGAUUGUAGCAGAAGGCUGUUUGUUGU [JR_SSNG3_Sub035] (Eterna round: R96, puzzle: Same State NG 3) | – | – | – | 41.5 nM | 29.7 nM | 42.5 nM
UUUAGUUGCGGGCAGGAUAUGUAUUAAAAUACAUGAGGAUCACCCAUGUGAGGCCGAAAAGGCCUACAGAAGGGCCAAUCGCGAC [Laonerce - 22] (puzzle: Same State 2) | 19.7 nM | 49.4 nM | 63 nM | – | – | –
UUUAUACAUGAGGAUCACCCAUGUCAACAAAGUCGAGGAUAUGGGCAUAUUAUCUUAUUUCCAGAAGGCGAAUUCU [salish99_ss1_r3_090] (Eterna round: R96, puzzle: Same State 1) | – | – | – | 101 nM | 305 nM | 378 nM
UUUAUACAUGAGGAUCACCCAUGUCAACAAAGUCGAGGAUAUGGGCAUAUUAUCUUAUUUCCAGAAGGCGAAUUCU [salish99_ss1_r3_090] (puzzle: Same State 1) | – | 158 nM | – | – | – | –
UUUCCAUAGAUAGGAUAUCAGUUUACAUGAGGAUCACCCAUGUUCUCUUUGGUUAUAAUUAUAUCUGAGAAGGAUCUUGAUGAA [JR_SSNG2_Sub002] (Eterna round: R96, puzzle: Same State NG 2) | – | – | – | – | 20.4 nM | –
UUUCGGUGGCUGGAGGAUAUCCUGGUUGUUACAUGAGGAUCACCCAUGUGCCGCGCGGUGCGCUGGGAGAAGGCCGGCGGCCCUU (puzzle: Same State 2) | – | 25.2 nM | – | – | – | –
